Square brackets hold non-standard residues; d marks the D form. Ends that are not written are not given here.

The results in this text go back to article PMC3859963 (Molecular cancer therapeutics, 2013).

The target of the assay is CD44s (UniProt P16070-12 21-361). Put plainly: flow cytometry on cells.

B1: 5(6)-FAM-HYD1 (peptide)
peptide: [dK][dI][dK][dM][dV][dI][dS][dW][dK]G
modifications: also: 5(6)-FAM label, position not given here
For B1, the “fold increase of binding versus vector only cells” value is 1.5 fold.
